Laboratory results reported in patent US20180201654A1, “PEPTIDE INHIBITORS OF HAUSP DEUBIQUITINASE” (priority 2012, published 2018).

Target: HAUSP TRAF domain (HAUSP^62-205) (human), Q93009
Experiment: ITC, titration against the HAUSP TRAF domain, 20 C

HAUSP TRAF domain (HAUSP^62-205) (human), Q93009, sequence (Q93009 62-205): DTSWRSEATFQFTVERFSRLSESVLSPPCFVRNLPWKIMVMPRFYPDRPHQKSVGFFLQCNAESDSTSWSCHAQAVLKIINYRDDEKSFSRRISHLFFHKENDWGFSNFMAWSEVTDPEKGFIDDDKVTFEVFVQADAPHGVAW

| Binder | Ka | Kd | TΔS | n | ΔG | ΔH |
| --- | --- | --- | --- | --- | --- | --- |
| EQGPADDPGEGPSTG (modifications not checked) [EBNA1^435-449 peptide] | 2.1e+06 M⁻¹ | 480 nM | -8.69 kcal/mol | 0.81 | -8.48 kcal/mol | -17.2 kcal/mol |
| EGASTSGM (modifications not checked) [vIRF4^209-216 peptide] | 100000 M⁻¹ |  | -10.3 kcal/mol | 0.81 | -6.74 kcal/mol | -17.1 kcal/mol |
